Experimental data reported in patent US20180273635A1 (Zymeworks, published 2018).
Substitutions are numbered along the chain they refer to. Read-outs that look alike come from different tables or passages of the source. Values belong to the binder of their own block, whether it stands above or below them.

Experiments:
[1] = target: T1, Recombinant human HER2 (human, UniProt P04626 23-652); experiment: SPR, variant captured on anti-human Fc, HER2 flowed, 25 C, post-SEC
T1 construct: extracellular domain; analyte of the SPR assays; also called HER2 ECD; ECD2 of HER2
Description: (§1) The affinity towards HER2 ECD of the samples was measured by SPR on a Biacore T200 as follows. Between 2000 and 4000 RU of anti-human Fc injected at concentration between 5 and 10 μg/ml was immobilized on a CM5 chip using standard amine coupling. Antigen-binding constructs were captured on the anti-human Fc (injected at concentration at 0.51 microg/mL in PBST, 1 min at 10 microl/min) at response levels ranging from 120-270 RU. […] HER2 dilutions were analyzed in duplicates. Sensograms were fit globally to a 1: 1 Langmuir binding model, using the software provided with the Biacore T200. All experiments were conducted at 25° C.
(§2) The affinity of antigen-binding constructs in OA format was determined by SPR following protein A purification. […] Antigen-binding constructs in FSA format were purified by protein A affinity and SEC prior to assessment of affinity by SPR.

[2] = target: T1, Recombinant human HER2; experiment: SPR, variant captured on anti-human Fc, HER2 flowed, 25 C, pre-SEC
Description: as §1

[3] = target: T1, Recombinant human HER2; experiment: SPR, post-SEC; ratio to WT v10013
Description: as §1, §2

[4] = target: T1, Recombinant human HER2; experiment: SPR, pre-SEC; ratio to WT v10013
Description: as §1, §2

[5] = target: T2, Recombinant human HER2 (human, UniProt P04626 23-652); experiment: SPR, 25 C; Ka ratio to WT v10013;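 also: constructs captured via anti-human Fc on CM5 chip, HER2 ECD as analyte in duplicate dilutions, sensorgrams globally fit to 1:1 Langmuir model on Biacore T200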
T2 construct: extracellular domain; Analyte of the SPR assays; also called HER2 ECD; ECD2 of HER2
Description: as §1

[6] = target: T2, Recombinant human HER2; experiment: SPR at 25 C of the OA variant, logarithm of the association constant
Description: as §1

[7] = target: T2, Recombinant human HER2; experiment: as above; remark: listed apart in the source
Description: as §1

[8] = target: T2, Recombinant human HER2; experiment: SPR at 25 C of the OA variant, equilibrium association constant
Description: as §1

[9] = target: T2, Recombinant human HER2; experiment: SPR, Biacore T200, 25 C; variant captured on anti-human Fc, HER2 flowed;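 also: HER2 extracellular domain analyte run as duplicate dilutions over amine-coupled anti-Fc on a CM5 chip, rates from global sensorgram fitting with a 1:1 Langmuir model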
Description: as §1

[10] = target: T2, Recombinant human HER2; experiment: calculated from the SPR Ka ratio to WT v10013;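 also: SPR at 25 °C with constructs captured on an anti-human Fc chip and HER2 extracellular domain as analyte, kinetics fitted to a 1:1 Langmuir model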
Description: as §1

[11] = target: T2, Recombinant human HER2; experiment: SPR at 25 C of the OA variant, equilibrium association constant; remark: listed apart in the source
Description: as §1

[12] = target: T3, HER2 expressed on the surface of cells (human, UniProt P04626 23-1255); experiment: flow cytometry on MCF7 cells (low HER2), n=1; B50 = concentration at 50% of Bmax
T3 construct: whole, on cells; also called ErbB2
Description: (§3) Binding of the test antigen-binding constructs to the surface of HER2+ cells was determined by flow cytometry. Cells were washed with PBS and resuspended in DMEM at 1×10⁵ cells/100 μl. 100 μl cell suspension was added into each microcentrifuge tube, followed by 10 μl/tube of the antigen-binding constructs. The tubes were incubated for 2 hr at 4° C. on a rotator. The microcentrifuge tubes were centrifuged for 2 min 2000 RPM at room temperature and the cell pellets washed with 500 μl media. Each cell pellet was resuspended in 100 μl of fluorochrome-labelled secondary antibody diluted in media to 2 μg/sample. The samples were then incubated for lhr at 4° C. on a rotator. After incubation, the cells were centrifuged for 2 min at 2000 rpm and washed in media. The cells were resuspended in 500 μl media, filtered, transferred to a tube containing 5 μl propidium iodide (PI) and analyzed on a BD LSR II flow cytometer according to the manufacturer's instructions. The B50 of the tested antigen-binding constructs was assessed by FACS with data analysis and curve fitting performed in GraphPad Prism. The experiment was carried out once (n=1) in SKBr3 cells, and twice (n=2) in SKOV3, MCF7, and BT-474 cells.
(§4) The experiment was performed once (n=1) in each cell line.

[13] = target: T3, HER2 expressed on the surface of cells; experiment: cell-based or functional assay
[14] = target: T3, HER2 expressed on the surface of cells; experiment: flow cytometry on MCF7 cells (low HER2), n=1
Description: as §3, §4

[15] = target: T3, HER2 expressed on the surface of cells; experiment: flow cytometry on BT474 cells, n=1
Description: as §3, §4

[16] = target: T3, HER2 expressed on the surface of cells; experiment: cell-based or functional assay; remark: listed apart in the source
[17] = target: T3, HER2 expressed on the surface of cells; experiment: flow cytometry on SKBR3 cells, n=1
Description: as §3, §4

[18] = target: T3, HER2 expressed on the surface of cells; experiment: cell-based or functional assay; remark: listed apart in the source
[19] = target: T3, HER2 expressed on the surface of cells; experiment: cell-based or functional assay; remark: listed apart in the source
[20] = target: T3, HER2 expressed on the surface of cells; experiment: flow cytometry on SKBR3 cells, n=1; B50 = concentration at 50% of Bmax
Description: as §3, §4

[21] = target: T3, HER2 expressed on the surface of cells; experiment: cell-based or functional assay; remark: listed apart in the source
[22] = target: T3, HER2 expressed on the surface of cells; experiment: flow cytometry on BT474 cells, n=1; B50 = concentration at 50% of Bmax
Description: as §3, §4

B5: Variant 14024 (antibody, human IgG1, kappa)
heavy: EVQLVESGGGLVQPGGSLRLSCAASGFTFTDYTMDWVRQAPGKGLEWVADVNPNSGGSIYNQRFKGRFTLSVDRSWNTLYLQMNSLRAEDTAVYYCARNLGPSFYFDYWGQGTLVTVSSASTKGPSVFPLAPSSKSTSGGTAALGCLVKDYFPEPVTVSWNSGALTSGVHTFPAVLQSSGLYSLSSVVTVPSSSLGTQTYICNVNHKPSNTKVDKKVEPKSCDKTHTCPPCPAPELLGGPSVFLFPPKPKDTLMISRTPEVTCVVVDVSHEDPEVKFNWYVDGVEVHNAKTKPREEQYNSTYRVVSVLTVLHQDWLNGKEYKCKVSNKALPAPIEKTISKAKGQPREPQVYVYPPSRDELTKNQVSLTCLVKGFYPSDIAVEWESNGQPENNYKTTPPVLDSDGSFALVSKLTVDKSRWQQGNVFSCSVMHEALHNHYTQKSLSLSPG
light: not shown
chain: not shown
notes: OA (one-armed) format; clones 7844, 7919, 4372; also called v14024
Ka, mut/Ka, WT [5]: ~67 fold
Log Ka [6]: 9.6
Log Ka [7]: 9.6
Ka [8]: 4e+09 M⁻¹
Kd [9]: ~0.25 nM
koff [9]: ~2.1e-05 s⁻¹
kon [9]: 85000 M⁻¹ s⁻¹
ΔΔG [10]: -2.5 kcal/mol
Ka [11]: 4e+09 M⁻¹

B6: Variant 10014 (antibody)
heavy: B5 heavy with T30A, W76K
light: not shown
Fc: not shown
notes: Fc substitutions are in EU numbering; also called v10014
Log Ka [6]: 8.7
Log Ka [7]: 8.7
Ka [8]: 4.7e+08 M⁻¹
Ka [11]: 4.7e+08 M⁻¹

B7: Variant 14032 (antibody, human IgG1, kappa)
heavy: B5 heavy with T30Q, W76K, S103W
light: not shown
chain: not shown
notes: OA (one-armed) format; clones 8780, 1811, 4372; also called v14032
Ka, mut/Ka, WT [5]: 21 fold
Log Ka [6]: 9.1
Log Ka [7]: 9.1
Ka [8]: 1.3e+09 M⁻¹
Kd [9]: 0.79 nM
koff [9]: 3.9e-05 s⁻¹
kon [9]: 49000 M⁻¹ s⁻¹
ΔΔG [10]: -1.8 kcal/mol
Ka [11]: 1.3e+09 M⁻¹

B10: Variant 14025 (antibody, human IgG1, kappa)
heavy: B5 heavy with T30Q
light: not shown
chain: not shown
notes: OA (one-armed) format; clones 8775, 1811, 4372; also called v14025
Ka, mut/Ka, WT [5]: ~41 fold
Log Ka [6]: 9.4
Log Ka [7]: 9.4
Ka [8]: 2.5e+09 M⁻¹
Kd [9]: ~0.4 nM
koff [9]: ~2.6e-05 s⁻¹
kon [9]: 65000 M⁻¹ s⁻¹
ΔΔG [10]: -2.2 kcal/mol
Ka [11]: 2.5e+09 M⁻¹

B11: Variant 14021 (antibody, name in Kabat numbering, V domains shown)
VH: EVQLVESGGGLVQPGGSLRLSCAASGFTFQDYTMDWVRQAPGKGLEWVGDVNPNSGGSIYNQRFKGRFTFSVDRSWNTLYLQMNSLRAEDTAVYYCARNLGPSFYFDYWGQGTLVTVSS
VL: DIQMTQSPSSLSASVGDRVTITCKASQDVSIGVAWYQQKPGKAPKLLIWSASYRYTGVPSRFSGSGSGTDFTLTISSLQPEDFATYYCQQYYIYPYTFGQGTKVEIKR
notes: also called v14021
B50 [12]: 1 nM
growth inhibition IC50 (potency), BT474 cells + EGF [13]: 2 nM
growth inhibition span (percentage of cells killed), BT474 cells + EGF [13]: 44%
growth inhibition span ratio to WT, BT474 cells + EGF [13]: 2.4 fold
Bmax [14]: 610 MFI
Bmax [15]: 23000 MFI
growth inhibition span (percentage of cells killed), MDA-MB-175 cells [16]: 82%
Bmax [17]: 31000 MFI
growth inhibition IC50 (potency), BT474 cells [18]: 0.49 nM
growth inhibition span (percentage of cells killed), BT474 cells [18]: 33%
growth inhibition span ratio to WT, BT474 cells [18]: 3.1 fold
growth inhibition IC50 (potency), NCI-N87 cells, 5 days [19]: 2 nM
growth inhibition span (percentage of cells killed), NCI-N87 cells [19]: 44%
increase in efficacy with respect to the WT, NCI-N87 cells [19]: 2.6 fold
increase in potency with respect to the WT, NCI-N87 cells [19]: 4.6 fold
B50 [20]: 10 nM
growth inhibition IC50 (potency), SKBR3 cells [21]: 0.32 nM
growth inhibition span (percentage of cells killed), SKBR3 cells [21]: 31%
growth inhibition span ratio to WT, SKBR3 cells [21]: 1.8 fold
B50 [22]: 2.4 nM

B12: Variant 14023 (antibody, name in Kabat numbering, V domains shown)
VH: B11 VH with S103W
VL: B11 VL
notes: also called v14023
B50 [12]: 0.8 nM
growth inhibition IC50 (potency), BT474 cells + EGF [13]: 1.7 nM
growth inhibition span (percentage of cells killed), BT474 cells + EGF [13]: 45%
growth inhibition span ratio to WT, BT474 cells + EGF [13]: 2.5 fold
Bmax [14]: 590 MFI
Bmax [15]: 23000 MFI
growth inhibition span (percentage of cells killed), MDA-MB-175 cells [16]: 84%
Bmax [17]: 29000 MFI
growth inhibition IC50 (potency), BT474 cells [18]: 0.63 nM
growth inhibition span (percentage of cells killed), BT474 cells [18]: 35%
growth inhibition span ratio to WT, BT474 cells [18]: 3.3 fold
growth inhibition IC50 (potency), NCI-N87 cells, 5 days [19]: 2.5 nM
growth inhibition span (percentage of cells killed), NCI-N87 cells [19]: 52%
increase in efficacy with respect to the WT, NCI-N87 cells [19]: 3.1 fold
increase in potency with respect to the WT, NCI-N87 cells [19]: 3.6 fold
B50 [20]: 3.9 nM
growth inhibition IC50 (potency), SKBR3 cells [21]: 0.34 nM
growth inhibition span (percentage of cells killed), SKBR3 cells [21]: 32%
growth inhibition span ratio to WT, SKBR3 cells [21]: 1.9 fold
B50 [22]: 2 nM

B13: Variant 14022 (antibody, name in Kabat numbering, V domains shown)
VH: B11 VH with W76K, S103W
VL: B11 VL
notes: also called v14022
B50 [12]: 2 nM
growth inhibition IC50 (potency), BT474 cells + EGF [13]: 2.8 nM
growth inhibition span (percentage of cells killed), BT474 cells + EGF [13]: 35%
growth inhibition span ratio to WT, BT474 cells + EGF [13]: 1.9 fold
Bmax [14]: 630 MFI
Bmax [15]: 23000 MFI
growth inhibition span (percentage of cells killed), MDA-MB-175 cells [16]: 83%
Bmax [17]: 31000 MFI
growth inhibition IC50 (potency), BT474 cells [18]: 0.54 nM
growth inhibition span (percentage of cells killed), BT474 cells [18]: 28%
growth inhibition span ratio to WT, BT474 cells [18]: 2.6 fold
growth inhibition IC50 (potency), NCI-N87 cells, 5 days [19]: 5.2 nM
growth inhibition span (percentage of cells killed), NCI-N87 cells [19]: 63%
increase in efficacy with respect to the WT, NCI-N87 cells [19]: 3.7 fold
increase in potency with respect to the WT, NCI-N87 cells [19]: 1.8 fold
B50 [20]: 9.8 nM
growth inhibition IC50 (potency), SKBR3 cells [21]: 0.41 nM
growth inhibition span (percentage of cells killed), SKBR3 cells [21]: 26%
growth inhibition span ratio to WT, SKBR3 cells [21]: 1.6 fold
B50 [22]: 3 nM

Now from value to binder:

Kd [1]: 2.6 nM
Kd [2]: 2.5 nM
Ka, mut/Ka, WT [3]: 8
Ka, mut/Ka, WT [4]: 7.9
B1: variant 10014 (antibody)
heavy: B5 heavy with T30A, W76K
light: not shown
Fc: not shown
notes: OA format; combines the mutations of 12610 and 12611; also called v10014

Kd [1]: 7.2 nM
Kd [2]: 6.2 nM
Ka, mut/Ka, WT [3]: 2.9
Ka, mut/Ka, WT [4]: 3.2
B2: variant 12533 (antibody, human IgG1, kappa)
heavy: B5 heavy with W76K
light: DIQMTQSPSSLSASVGDRVTITCKASQDVSIGVAWYQQKPGKAPKLLIYSASYRYTGVPSRFSGSGSGTDFTLTISSLQPEDFATYYCQQYYIYPAAFGQGTKVEIKRTVAAPSVFIFPPSDEQLKSGTASVVCLLNNFYPREAKVQWKVDNALQSGNSQESVTEQDSKDSTYSLSSTLTLSKADYEKHKVYACEVTHQGLSSPVTKSFNRGEC
chain: not shown
notes: also called v12533

Ka, mut/Ka, WT [5]: ~102 fold
Log Ka [6]: 9.7
Log Ka [7]: 9.7
Ka [8]: 5.3e+09 M⁻¹
Kd [9]: ~0.19 nM
koff [9]: ~1.4e-05 s⁻¹
kon [9]: 73000 M⁻¹ s⁻¹
ΔΔG [10]: -2.7 kcal/mol
Ka [11]: 5.3e+09 M⁻¹
B3: Variant 14043 (antibody, human IgG1, kappa)
heavy: B5 heavy with T30Q
light: not shown
chain: not shown
notes: OA (one-armed) format; clones 8775, 7919, 4372; also called v14043

Ka, mut/Ka, WT [5]: 12 fold
Log Ka [6]: 8.8
Log Ka [7]: 8.8
Ka [8]: 6.2e+08 M⁻¹
Kd [9]: 1.6 nM
koff [9]: 7.4e-05 s⁻¹
kon [9]: 46000 M⁻¹ s⁻¹
ΔΔG [10]: -1.5 kcal/mol
Ka [11]: 6.2e+08 M⁻¹
B4: Variant 14050 (antibody, human IgG1, kappa)
heavy: B5 heavy with T30Q, W76K, S103W
light: not shown
chain: not shown
notes: OA (one-armed) format; clones 8780, 7919, 4372; also called v14050

Ka, mut/Ka, WT [5]: ~77 fold
Log Ka [6]: 9.7
Log Ka [7]: 9.7
Ka [8]: 4.7e+09 M⁻¹
Kd [9]: ~0.21 nM
koff [9]: ~1.6e-05 s⁻¹
kon [9]: 73000 M⁻¹ s⁻¹
ΔΔG [10]: -2.6 kcal/mol
Ka [11]: 4.7e+09 M⁻¹
B8: Variant 14055 (antibody, human IgG1, kappa)
heavy: B5 heavy with T30Q, S103W
light: not shown
chain: not shown
notes: OA (one-armed) format; clones 8784, 7919, 4372; also called v14055

Kd [1]: 9 nM
Kd [2]: 9.2 nM
Ka, mut/Ka, WT [3]: 2.3
Ka, mut/Ka, WT [4]: 2.1
B9: variant 12529 (antibody, human IgG1, kappa)
heavy: B5 heavy with W76K
light: not shown
chain: not shown
notes: also called v12529
